Measured values reported in patent US20240035010, “COMPOSITIONS COMPRISING A VARIANT POLYPEPTIDE AND USES THEREOF” (Arbor Biotechnologies, Inc., published 2024).

T1: variant nuclease SEQ ID NO: 53 (P14R, D32R, I61R, E311R, T338G, E736G)
T1 chain: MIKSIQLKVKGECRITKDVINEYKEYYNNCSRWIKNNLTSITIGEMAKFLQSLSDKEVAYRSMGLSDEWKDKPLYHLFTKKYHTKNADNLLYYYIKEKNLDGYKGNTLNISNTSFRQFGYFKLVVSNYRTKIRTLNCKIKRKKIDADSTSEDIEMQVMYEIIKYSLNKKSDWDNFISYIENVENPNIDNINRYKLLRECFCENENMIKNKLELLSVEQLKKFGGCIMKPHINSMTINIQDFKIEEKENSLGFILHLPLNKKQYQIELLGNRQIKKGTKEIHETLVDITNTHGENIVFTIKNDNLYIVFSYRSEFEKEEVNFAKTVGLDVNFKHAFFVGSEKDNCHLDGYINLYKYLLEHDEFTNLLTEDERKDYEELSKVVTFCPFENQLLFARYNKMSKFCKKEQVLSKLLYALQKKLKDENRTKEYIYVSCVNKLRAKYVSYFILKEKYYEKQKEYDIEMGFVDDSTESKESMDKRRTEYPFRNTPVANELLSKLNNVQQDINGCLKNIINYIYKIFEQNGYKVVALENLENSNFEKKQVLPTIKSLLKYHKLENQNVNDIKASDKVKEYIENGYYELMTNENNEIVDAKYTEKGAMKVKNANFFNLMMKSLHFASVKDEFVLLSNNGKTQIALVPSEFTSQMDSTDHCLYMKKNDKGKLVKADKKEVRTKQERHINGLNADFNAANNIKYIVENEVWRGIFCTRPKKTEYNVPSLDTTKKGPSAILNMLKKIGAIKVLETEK

T2: variant nuclease D590G combination (P14R, D32R, I61R, E311R, D590G)
T2 chain: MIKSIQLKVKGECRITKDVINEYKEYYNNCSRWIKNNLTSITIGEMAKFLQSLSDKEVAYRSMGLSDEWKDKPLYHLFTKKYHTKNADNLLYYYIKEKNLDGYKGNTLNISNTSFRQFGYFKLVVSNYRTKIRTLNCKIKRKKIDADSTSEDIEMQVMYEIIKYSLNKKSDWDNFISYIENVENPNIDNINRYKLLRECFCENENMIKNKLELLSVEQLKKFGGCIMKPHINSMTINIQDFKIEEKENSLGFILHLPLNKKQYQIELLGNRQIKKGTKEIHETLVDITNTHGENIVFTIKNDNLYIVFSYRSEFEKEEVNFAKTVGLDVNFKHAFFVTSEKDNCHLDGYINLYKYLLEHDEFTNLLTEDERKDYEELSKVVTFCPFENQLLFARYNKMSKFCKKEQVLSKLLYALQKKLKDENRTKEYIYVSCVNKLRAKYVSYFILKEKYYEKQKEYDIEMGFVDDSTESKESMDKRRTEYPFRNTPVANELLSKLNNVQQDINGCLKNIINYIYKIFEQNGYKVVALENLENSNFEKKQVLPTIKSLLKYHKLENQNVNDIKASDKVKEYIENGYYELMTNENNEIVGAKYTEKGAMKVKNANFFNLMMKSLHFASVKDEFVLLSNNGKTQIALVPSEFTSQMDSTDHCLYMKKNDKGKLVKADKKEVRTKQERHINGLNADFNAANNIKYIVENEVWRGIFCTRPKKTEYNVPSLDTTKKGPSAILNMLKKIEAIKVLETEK


Columns and labels:
[1] = target: T1, variant nuclease SEQ ID NO: 53 (P14R, …); experiment: cell_activity; % indels; HEK293T; PAM 5'-TTTA-3'; settings: tags: pcDNA3.1 expression
[2] = target: T2, variant nuclease D590G combination; experiment: cell_activity; PAM 5'-TTTG-3'; settings: tags: pcDNA3.1 expression
Procedure: Approximately 16 hours prior to transfection, 25,000 HEK293T cells in DMEM/10% FBS+Pen/Strep (D10 media) were plated into each well of a 96-well plate. On the day of transfection, the cells were 70-90% confluent. For each well to be transfected, a mixture of Lipofectamine 2000™ and Opti-MEM™ was prepared and incubated at room temperature for 5 minutes (Solution 1). After incubation, the Lipofectamine 2000™:Opti-MEM™ mixture was added to a separate mixture containing nuclease plasmid, RNA guide plasmid, and Opti-MEM™ (Solution 2). In the case of negative controls, the RNA guide plasmid was not included in Solution 2. Solutions 1 and 2 were mixed by pipetting up and down, then incubated at room temperature for 25 minutes. Following incubation, the Solution 1 and 2 mixture was added dropwise to each well of a 96-well plate containing the cells. Approximately 72 hours post transfection, cells were trypsinized by adding TrypLE™ to the center of each well and incubating at 37° C. for approximately 5 minutes. D10 media was then added to each well and mixed to resuspend cells. The resuspended cells were centrifuged at 500 g for 10 minutes to obtain a pellet, and the supernatant was discarded. The cell pellet was then resuspended in QuickExtract™ buffer (Lucigen®), and cells were incubated at 65° C. for 15 minutes, 68° C. for 15 minutes, and 98° C. for 10 minutes.
This Example describes assessment of indel activity at multiple target sites using the wild-type polypeptide of SEQ ID NO: 3 or variant polypeptides of Table 4. The variant polypeptides were cloned into a pcDNA3.1 backbone (Invitrogen), and the cells were transfected as described in Example 7.
The percentage of NGS reads containing indels (% indels) were calculated. For each variant polypeptide and target, % indels were averaged across two bioreplicates and two technical replicates. These values were then compared to % indels of the wild-type polypeptide of SEQ ID NO: 3.

Binder | indel editing activity [1] | indel activity [2]
VEGFA crRNA ; VEGFA target (ssRNA ; dsDNA) RNA: CUUGUUGUAUAUGUCCUUUUAUAGGUAUUAAACAACUCCAGACCACCAAUGGGCAC DNA 1: TCCAGACCACCAATGGGCAC DNA 2: GTGCCCATTGGTGGTCTGGA | 3.04 fold of WT | –
AAVS1 crRNA ; AAVS1 target (ssRNA ; dsDNA) RNA: CUUGUUGUAUAUGUCCUUUUAUAGGUAUUAAACAACUGAGAAUGGUGCGUCCUAGG DNA 1: TGAGAATGGTGCGTCCTAGG DNA 2: CCTAGGACGCACCATTCTCA | – | 5.96 fold of WT
